Reference: US20240376170A1 (BRIGHT PEAK THERAPEUTICS, published 2024)
Bridges are numbered along the chain shown (N, C = ends). Primed or numbered codes have the meaning given here. [ ]: non-standard residue; d: D form. Ygp(4) = Tyr with amino-capped PEG8 (O-(8x polyethylene glycol-amino)-tyrosine); Yn3(4) = Tyr with azide-capped PEG9 (O-(9x polyethylene glycol-azido)-tyrosine); Ygp = O-(8x polyethylene glycol-amino)-tyrosine (Tyr, amino-capped PEG8); Yn3 = O-(9x polyethylene glycol-azido)-tyrosine (Tyr, azide-capped PEG9); Ygp″ = O-(8x polyethylene glycol-amino)-tyrosine; Yn3″ = O-(9x polyethylene glycol-azido)-tyrosine; PEG16′ = 16x polyethylene glycol; PEG24′ = 24x polyethylene glycol; PEG4′ = 4x polyethylene glycol; PEG9′ = 9x polyethylene glycol; hSer = N[C@@H](CCO)C(=O)O; Nle = CCCC[C@H](N)C(=O)O

T1: IL-2 receptor βγ complex (human, UniProt P14784 27-551; P31785 23-369)
T1 sequence (looked up) 1: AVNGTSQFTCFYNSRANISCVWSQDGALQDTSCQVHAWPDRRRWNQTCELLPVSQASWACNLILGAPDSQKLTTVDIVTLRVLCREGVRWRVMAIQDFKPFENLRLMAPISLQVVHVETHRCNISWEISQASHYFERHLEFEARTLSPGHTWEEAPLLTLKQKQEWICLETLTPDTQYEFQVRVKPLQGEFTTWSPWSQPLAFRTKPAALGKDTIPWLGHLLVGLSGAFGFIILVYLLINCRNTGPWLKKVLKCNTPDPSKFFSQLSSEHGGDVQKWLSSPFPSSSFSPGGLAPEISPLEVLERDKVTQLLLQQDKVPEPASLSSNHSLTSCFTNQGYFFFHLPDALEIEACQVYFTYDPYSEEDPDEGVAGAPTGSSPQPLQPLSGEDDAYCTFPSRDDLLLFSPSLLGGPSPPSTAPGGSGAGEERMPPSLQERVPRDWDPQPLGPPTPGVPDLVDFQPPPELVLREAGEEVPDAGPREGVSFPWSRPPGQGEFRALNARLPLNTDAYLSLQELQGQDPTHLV
T1 sequence (looked up) 2: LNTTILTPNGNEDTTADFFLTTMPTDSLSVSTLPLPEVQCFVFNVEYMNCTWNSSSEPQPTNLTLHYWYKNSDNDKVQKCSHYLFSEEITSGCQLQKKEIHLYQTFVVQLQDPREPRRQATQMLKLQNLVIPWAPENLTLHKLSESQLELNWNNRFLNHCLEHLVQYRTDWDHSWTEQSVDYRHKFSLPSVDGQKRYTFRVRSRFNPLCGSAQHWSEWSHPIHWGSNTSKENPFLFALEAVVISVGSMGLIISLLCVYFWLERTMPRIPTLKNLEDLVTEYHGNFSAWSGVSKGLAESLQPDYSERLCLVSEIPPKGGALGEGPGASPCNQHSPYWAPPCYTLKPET

B1: CMP-154 (ligand)
chain: PLGLAGAPTSSSTKKTQLQLEHLLLDLQ[Nle]ILNGIENYKNPKLTR[Nle]L[hSer][Yn3″]KF[Ygp″][Nle]PKKATELKHLQCLEEELKPLEEVL[hSer]LAQSKNFHLRPRDLISNINVIVLELKGSETTF[hSer]CEYADETATIVEFLNRWITFSQSIISTLT
modifications: linker N-35 via PEG9′
B2: CMP-157, MMP2 cleaved molecule (ligand)
chain: PLGLAGAPTSSSTKKTQLQLEHLLEDLQ[Nle]ILNGINNYKNPKLTR[Nle]L[hSer][Yn3″]KF[Ygp″][Nle]PKKATELKHLQCLEEELKPLEEVL[hSer]LAQSKNFHLRPRDLISNINVIVLELKGSETTF[hSer]CEYADETATIVEFLNRWITFSQSIISTLT
modifications: not fully specified (bridges); also: MMP2 cleaved, site not given here
B3: CMP-137, MMP2 cleaved molecule (ligand)
chain: APTSSSTKKTQLQLEHLLLDLQ[Nle]ILNGIENYKNPKLTR[Nle]L[hSer][Yn3]KF[Ygp][Nle]PKKATELKHLQCLEEELKPLEEVL[hSer]LAQSKNFHLRPRDLISNINVIVLELKGSETTF[hSer]CEYADETATIVEFLNRWITFSQSIISTLT
modifications: ends and bridges not checked; also: cleaved by MMP2, cleavage product not defined, N-terminal PEG24 link and Glu29 side-chain attachment of the cleavable peptide not defined
B4: CMP-156 (ligand)
chain: APTSSSTKKTQLQLEHLLEDLQ[Nle]ILNGINNYKNPKLTR[Nle]L[hSer][Yn3″]KF[Ygp″][Nle]PKKATELKHLQCLEEELKPLEEVL[hSer]LAQSKNFHLRPRDLISNINVIVLELKGSETTF[hSer]CEYADETATIVEFLNRWITFSQSIISTLT
modifications: linker N-19 via GPLGLAG‑PEG4
B5: CMP-139 (ligand)
chain: [PEG16′]SGGPGPAGMKGLPGS[PEG16′]APTSSSTKKTQLQLEHLLLDLQ[Nle]ILNGIENYKNPKLTR[Nle]L[hSer][Yn3]KF[Ygp][Nle]PKKATELKHLQCLEEELKPLEEVL[hSer]LAQSKNFHLRPRDLISNINVIVLELKGSETTF[hSer]CEYADETATIVEFLNRWITFSQSIISTLT
modifications: bridge (positions not given here); not fully specified (bridges); ends not checked
B6: CMP-155, MMP2 cleaved molecule (ligand)
chain: APTSSSTKKTQLQLEHLLLDLQ[Nle]ILNGIENYKNPKLTR[Nle]L[hSer][Yn3″]KF[Ygp″][Nle]PKKATELKHLQCLEEELKPLEEVL[hSer]LAQSKNFHLRPRDLISNINVIVLELKGSETTF[hSer]CEYADETATIVEFLNRWITFSQSIISTLT
modifications: not fully specified; also: cleaved by MMP2, cleavage product not defined, N-terminal PEG9 link and Glu29 side-chain attachment of the cleavable peptide not defined
B7: CMP-137 (ligand)
chain: [PEG24′]PLGLAG[PEG24′]APTSSSTKKTQLQLEHLLLDLQ[Nle]ILNGIENYKNPKLTR[Nle]L[hSer][Yn3]KF[Ygp][Nle]PKKATELKHLQCLEEELKPLEEVL[hSer]LAQSKNFHLRPRDLISNINVIVLELKGSETTF[hSer]CEYADETATIVEFLNRWITFSQSIISTLT
modifications: bridge (positions not given here); not fully specified (bridges); ends not checked
B8: CMP-158 (ligand)
chain: GPLGLAG[PEG4′]APTSSSTKKTQLQLEHLLLDLE[Nle]ILNGINNYKNPKLTR[Nle]L[hSer][Yn3(4)]KF[Ygp(4)][Nle]PKKATELKHLQCLEEELKPLEEVL[hSer]LAQSKNFHLRPRDLISNINVIVLELKGSETTF[hSer]CEYADETATIVEFLNRWITFSQSIISTLT
modifications: bridge N-30; not fully specified (bridges); ends not checked
B9: CMP-154, MMP2 cleaved molecule (ligand)
chain: PLGLAGAPTSSSTKKTQLQLEHLLLDLQ[Nle]ILNGIENYKNPKLTR[Nle]L[hSer][Yn3″]KF[Ygp″][Nle]PKKATELKHLQCLEEELKPLEEVL[hSer]LAQSKNFHLRPRDLISNINVIVLELKGSETTF[hSer]CEYADETATIVEFLNRWITFSQSIISTLT
modifications: not fully specified (bridges); also: MMP2 cleaved, site not given here
B10: CMP-156, MMP2 cleaved molecule (ligand)
chain: APTSSSTKKTQLQLEHLLEDLQ[Nle]ILNGINNYKNPKLTR[Nle]L[hSer][Yn3″]KF[Ygp″][Nle]PKKATELKHLQCLEEELKPLEEVL[hSer]LAQSKNFHLRPRDLISNINVIVLELKGSETTF[hSer]CEYADETATIVEFLNRWITFSQSIISTLT
modifications: not fully specified; also: MMP2 cleaved, cleavage site and linker fragments on N-terminus and Glu19 side chain not given here
B11: CMP-157 (ligand)
chain: PLGLAGAPTSSSTKKTQLQLEHLLEDLQ[Nle]ILNGINNYKNPKLTR[Nle]L[hSer][Yn3″]KF[Ygp″][Nle]PKKATELKHLQCLEEELKPLEEVL[hSer]LAQSKNFHLRPRDLISNINVIVLELKGSETTF[hSer]CEYADETATIVEFLNRWITFSQSIISTLT
modifications: linker N-25 via PEG4′
B12: CMP-159 (ligand)
chain: PLGLAGAPTSSSTKKTQLQLEHLLLDLE[Nle]ILNGINNYKNPKLTR[Nle]L[hSer][Yn3(4)]KF[Ygp(4)][Nle]PKKATELKHLQCLEEELKPLEEVL[hSer]LAQSKNFHLRPRDLISNINVIVLELKGSETTF[hSer]CEYADETATIVEFLNRWITFSQSIISTLT
modifications: bridge N-28; not fully specified (N-terminus, bridges); ends not checked
B13: CMP-152, MMP2 cleaved molecule (ligand)
chain: PLGLAGAPTSSSTKKTQLQLEHLLLDLQ[Nle]ILNGINNYKNPKLTR[Nle]L[hSer][Yn3″]KF[Ygp″][Nle]PKKATELKHLQCLEEELKPLEEVL[hSer]LAQSKNFHLRPRDLISNINVIVLELKGSETTF[hSer]CEYADETATIVEFLNRWITFSQSIISTLT
modifications: not fully specified (bridges); also: MMP2 cleaved, site not given here
B14: CMP-158, MMP2 cleaved molecule (ligand)
chain: APTSSSTKKTQLQLEHLLLDLE[Nle]ILNGINNYKNPKLTR[Nle]L[hSer][Yn3(4)]KF[Ygp(4)][Nle]PKKATELKHLQCLEEELKPLEEVL[hSer]LAQSKNFHLRPRDLISNINVIVLELKGSETTF[hSer]CEYADETATIVEFLNRWITFSQSIISTLT
modifications: not fully specified; ends and bridges not checked; also: MMP2 cleaved, cleavage site and linker fragments on N-terminus and Glu22 side chain not given here
B15: CMP-155 (ligand)
chain: APTSSSTKKTQLQLEHLLLDLQ[Nle]ILNGIENYKNPKLTR[Nle]L[hSer][Yn3″]KF[Ygp″][Nle]PKKATELKHLQCLEEELKPLEEVL[hSer]LAQSKNFHLRPRDLISNINVIVLELKGSETTF[hSer]CEYADETATIVEFLNRWITFSQSIISTLT
modifications: linker N-29 via GPLGLAG‑PEG9
B16: CMP-152 (ligand)
chain: PLGLAGAPTSSSTKKTQLQLEHLLLDLQ[Nle]ILNGINNYKNPKLTR[Nle]L[hSer][Yn3″]KF[Ygp″][Nle]PKKATELKHLQCLEEELKPLEEVL[hSer]LAQSKNFHLRPRDLISNINVIVLELKGSETTF[hSer]CEYADETATIVEFLNRWITFSQSIISTLT
modifications: linker N-38 via PEG9‑glutaryl
B17: CMP-139, MMP2 cleaved molecule (ligand)
chain: APTSSSTKKTQLQLEHLLLDLQ[Nle]ILNGIENYKNPKLTR[Nle]L[hSer][Yn3]KF[Ygp][Nle]PKKATELKHLQCLEEELKPLEEVL[hSer]LAQSKNFHLRPRDLISNINVIVLELKGSETTF[hSer]CEYADETATIVEFLNRWITFSQSIISTLT
modifications: ends and bridges not checked; also: cleaved by MMP2, cleavage product not defined, N-terminal PEG16 link and Glu29 side-chain attachment of the cleavable peptide not defined

Biological target: T1, IL-2 receptor βγ complex
Experiment: cell-based or functional assay

Row | Binder | Average EC50, pSTAT5 Assay (T cells) [nM]
1 | B1 | 24.7
2 | B2 | 10
3 | B3 | 4.09
4 | B4 | 86
5 | B5 | 21.3
6 | B6 | 2.9
7 | B7 | 27.1
8 | B8 | 36.6
9 | B9 | 4.2
10 | B10 | 21.3
11 | B11 | 54.5
12 | B12 | 35.5
13 | B13 | 2.95
14 | B14 | 1.95
15 | B15 | 10.7
16 | B16 | 16.1
17 | B17 | 3.61
